Measurements reported in patent US8304519B2, “Compositions and methods for modulating dopamine neurotransmission” (Centre for Addiction and Mental Health, priority 2005, dated 2012).

Experiments:
[35S]-D2[IL3-2] = molecular target: T1, [35S]-D2[IL3-2] (Homo sapiens, UniProt P14416); assay: In vitro binding assay of GST-DAT fusion proteins with [35S]-D2[IL3-2] probe; conditions: autoradiography
T1 construct: made in house
T1 sequence (P14416 271-373): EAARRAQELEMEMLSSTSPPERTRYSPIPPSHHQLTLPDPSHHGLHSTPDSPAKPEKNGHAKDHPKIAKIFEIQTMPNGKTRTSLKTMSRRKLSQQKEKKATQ
Description: (§1) Glutathione beads carrying GST fusion proteins (DAT[NT1] (SEQ ID NO:7), DAT[NT2] (SEQ ID NO:9), DAT[NT3] (SEQ ID NO: 10)) or GST (10-20 μg each) alone was incubated with [35S]-methionine-labelled D2[IL3-2] probe (SEQ ID NO:3) respectively. The beads were then washed 4-6 times with PBS containing 0.5% Triton X-100 and eluted with 10 mM glutathione elution buffer. Eluates were separated by SDS-PAGE and visualized by autoradiography.

D2 receptor [1] = molecular target: T2, D2 receptor (Homo sapiens, UniProt P14416); assay: DA uptake on D2 activation in cultured midbrain neurons infected with D2 and DAT adenoviruses; format: cell-based, rat; parameters: expressed in transfected cells; host or cells: primary rat midbrain neuronal cultures, adenoviral infection
Description: (§2) Measurement of DA uptake was performed on intact cells as previously described (30). Briefly, 2-4 days following transfection in 24-well plates (˜2×10^5 cells seeded per well) medium was removed and wells were rinsed with 0.5 mL of uptake buffer (5 mM Tris, 7.5 mM HEPES, 120 mM NaCl, 5.4 mM KCl, 1.2 mM CaCl2, 1.2 mM MgSO4, 1 mM ascorbic acid, 5 mM glucose, pH 7.1). Cells were then preincubated in duplicate with the indicated concentrations of dopaminergic agents (10^−13 to 10^−4 M) 5 min prior to the addition of 0.25 mL of 20 nM [3H]DA (final concentration) and incubated for 10 min at room temperature in a total volume of 0.5 mL. Nonspecific [3H] DA (37-53 Ci/mmol) uptake was defined in the presence of 10 μM mazindol. Wells were rinsed twice with 0.5 mL of uptake buffer and cells were solubilized in 0.5 mL of 1% SDS and collected to measure incorporated radioactivity using a Beckman liquid scintillation counter (LS 6000SC).
(§3) Midbrain cultures from postnatal day 2 rats are prepared by dissection of ventrolateral sections of the mesencephalon (avoiding medial tissue regions) in ice-cold HBSS. […] The single cell suspensions are counted with a hemocytometer for plating at desired densities onto poly-D-Lysine (100 ug/mL) coated tissue culture plates of varying formats or, onto coated glass cover-slips for microscopy. […]

D2 receptor [2] = molecular target: T2, D2 receptor; format: cell-based; parameters: expressed in transfected cells; host or cells: HEK-293 cells co-expressing D2 and DAT; conditions: pre-incubation 150-200 ng/ml, HEK-293 cells co-expressing D2 and DAT
Description: Measurement of DA uptake was performed on intact cells as previously described (30). Briefly, 2-4 days following transfection in 24-well plates (˜2×10^5 cells seeded per well) medium was removed and wells were rinsed with 0.5 mL of uptake buffer (5 mM Tris, 7.5 mM HEPES, 120 mM NaCl, 5.4 mM KCl, 1.2 mM CaCl2, 1.2 mM MgSO4, 1 mM ascorbic acid, 5 mM glucose, pH 7.1). […] Wells were rinsed twice with 0.5 mL of uptake buffer and cells were solubilized in 0.5 mL of 1% SDS and collected to measure incorporated radioactivity using a Beckman liquid scintillation counter (LS 6000SC).

D2 receptor [3] = molecular target: T2, D2 receptor; assay: Cell-ELISA of DAT membrane expression on D2 activation in cultured midbrain neurons; format: cell-based, rat; parameters: expressed in transfected cells; host or cells: primary rat midbrain neuronal cultures, adenoviral infection; conditions: cultured midbrain neurons infected with D2 and DAT adenoviruses
Description: Cell-ELISA assays (colorimetric assays) were done essentially as previously described (Lee et al., 2002a). Neurons or HEK-293T cells were transiently transfected with the indicated cDNA constructs by the Lipofectamine 2000 (InVitrogen) method (6-10 μg of each indicated cDNA per 7.5×10^6 cells), and equally distributed to two 6-well plates (35 mm/well), and grown for 2-4 days. The same density of co-transfected cells were fixed in 4% paraformaldehyde for 10 min in the absence (non-permeabilized conditions) or the presence (permeabilized conditions) of 1% Triton X-100. Cells were incubated with DAT antibody against the extracellular loop (Chemicon) for the purpose of labeling the proteins on the cell surface under non-permeabilized conditions or the entire transporter pool under permeabilized conditions. […] The cell surface expression of DAT was presented as the ratio of colorimetric readings under non-permeabilized conditions to those under permeabilized conditions. […]
as §3

D2 receptor [4] = molecular target: T2, D2 receptor; assay: cAMP accumulation in cells co-expressing D2 with DAT; format: cell-based; parameters: expressed in transfected cells; host or cells: HEK-293 cells co-expressing D2 and DAT; conditions: data not shown
D2-DAT coupling = molecular target: T3, D2-DAT coupling (Homo sapiens, UniProt P14416); assay: [3H]DA uptake in rat midbrain primary cultures infected with DAT and D2 adenovirus; format: cell-based; conditions: 10 μM for 30 minutes, cultured neurons
T3 construct: expressed in transfected cells; host or cells: primary rat midbrain neuronal cultures, adenoviral infection
Description: as §2, with “Cells were then preincubated in duplicate with the indicated concentrations of dopaminergic agents (10^−13 to 10^−4 M) 5 min prior to the addition of 0.25 mL of 20 nM [3H]DA” left out
as §3, with “HBSS. Tissue is placed in cold neurobasal/B27 medium (Invitrogen) supplemented with 0.5 mM L-glutamine, and 10 ng/mL bFGF (culture medium).” for “HBSS.”

[5] = Amphetamine-induced hyper-locomotor activity; format: in vivo; conditions: ip injection, 3 nmol/g
Description: Tests of locomotor activity were conducted in four clear Plexiglas activity chambers (Med Associates Inc., St Albans, Vt.) measuring 43 cm long, 43 cm wide, and 30 cm high. An array of 16×16 photodetectors, spaced 2.5 cm apart, and positioned 2.5 cm above the floor of the chamber was used to detect horizontal locomotor activity as distance traveled. Prior to testing, all mice were first habituated to the apparatus by placing them in the activity chambers for 1 h on three consecutive days. On test days, mice were placed in the activity chamber for 1 h prior to receiving an IP injection of TAT (SEQ ID NO:14), TAT-DAT[NT1-1] (SEQ ID NO:12), or TAT-DAT[NT1-2] peptide (SEQ ID NO: 13). Locomotor activity was then measured for the next 180 min.

[6] = molecular target: T4, D2-DAT direct interaction (Homo sapiens, UniProt P14416); assay: In vitro binding assay, blockade of GST-DAT[NT1] binding to [35S]-D2[IL3-2] by peptides; conditions: co-incubation with purified peptide
T4 construct: made in house; host or cells: bacteria (GST fusion, pGEX4T-3)
T4 sequence (P14416 271-373): T1 sequence (P14416 271-373)
Description: as §1

[7] = systemically injected; cited from earlier work

T2 sequence (P14416 1-414 isoform P14416-2): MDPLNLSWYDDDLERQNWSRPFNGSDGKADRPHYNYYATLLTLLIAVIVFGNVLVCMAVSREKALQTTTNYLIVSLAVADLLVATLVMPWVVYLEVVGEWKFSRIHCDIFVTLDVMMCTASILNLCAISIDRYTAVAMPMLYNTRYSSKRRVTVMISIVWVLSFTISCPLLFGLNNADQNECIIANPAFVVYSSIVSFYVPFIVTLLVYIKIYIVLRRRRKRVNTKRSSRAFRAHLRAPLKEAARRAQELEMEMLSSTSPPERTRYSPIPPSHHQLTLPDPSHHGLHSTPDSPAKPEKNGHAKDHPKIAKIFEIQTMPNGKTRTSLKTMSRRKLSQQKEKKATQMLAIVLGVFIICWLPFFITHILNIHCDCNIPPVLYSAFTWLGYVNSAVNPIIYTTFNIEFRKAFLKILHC
T3 sequence (P14416 1-414 isoform P14416-2): as above

Substance: GST fused DAT[NT1]: GST fusion protein encoding DAT M1-P26, MSKSKCSVGLMSSVVAPAKEPNAVGP (SEQ ID NO:7)
- hybridization (direct binding) with [35S]-D2[IL3-2] ([35S]-D2[IL3-2]): hybridized

Substance: pertussis toxin (PTX)
- blockade of inhibition of DAT-mediated DA uptake by activation of D2 receptor (D2 receptor [1]): blocked
- blockade of quinpirole-induced decrease in DAT-mediated DA uptake (D2 receptor [2]): blocked
- blockade of inhibition of DAT membrane expression by activation of D2 receptor (D2 receptor [3]): blocked
- functional block of the ability of the D2 receptor to inhibit cAMP accumulation (D2 receptor [4]): confirmed

Substance: TAT-DAT[NT1-2] peptide: DAT[NT1-2] (A16-P26) peptide fused to HIV-1 TAT cell-membrane transduction domain (SEQ ID NO:13) (YGRKKRRQRRRAPAKEPNAVGP; HIV virus type 1 TAT protein fused to human dopamine transporter protein (TAT-DAT[NT1-2]))
- DAT-mediated DA uptake (D2-DAT coupling): did not produce any effects
- behavioural effects of amphetamine (hyper-locomotor activity) [5]: reduce

Substance: DAT[NT1-1] (M1-V15) peptide: purified peptide DAT M1-V15, MSKSKCSVGLMSSVV (SEQ ID NO:2) (Human dopamine transporter protein (DAT[NT1-1] M1-V15))
- disruption of the interaction between [35S]-D2[IL3-2] and GST fused DAT[NT1] [6]: disrupted

Substance: Tyr-Gly-Arg-Lys-Lys-Arg-Arg-Gln-Arg-Arg-Arg [TAT peptide]
- time after IP injection at which the blood-brain barrier is penetrated [7]: 1 h
